For assay [1], the target named is androglobin heme-binding globin domain (circularly permuted globin domain of androglobin) (human). Description: SEC; size exclusion analysis in a phosphate buffer, without salt. (SEC sorts molecules by how far they enter the pores of the column.)
The target is the same in assay [2]. Briefly: SEC; size exclusion analysis in 150 mM NaCl buffer.

Broadly, the stoichiometry N is the number of molecules, sites or subunits per partner or assembly. In the case of “androglobin heme-binding globin domain (circularly permuted globin domain of androglobin) (domain or fragment)”, the results for the stoichiometry N in assay [1] and in assay [2] were 2 and 4, respectively.
